Measurements: PMC3299411 (Molecular Cell, 2011)
Positions count from the first letter of the chain named. Numbers in names are those of the source. One block for each molecule: values may come before it.

What was measured:
Assay in all cases: cross-linking
[1] = biological target: H3 (Drosophila (endogenous in S2 cells)) (UniProt P02299)
[2] = biological target: T1, endogenous CID (Drosophila (endogenous in S2 cells)), Q9V6Q2; conditions: remark: other sources report otherwise
T1 chain: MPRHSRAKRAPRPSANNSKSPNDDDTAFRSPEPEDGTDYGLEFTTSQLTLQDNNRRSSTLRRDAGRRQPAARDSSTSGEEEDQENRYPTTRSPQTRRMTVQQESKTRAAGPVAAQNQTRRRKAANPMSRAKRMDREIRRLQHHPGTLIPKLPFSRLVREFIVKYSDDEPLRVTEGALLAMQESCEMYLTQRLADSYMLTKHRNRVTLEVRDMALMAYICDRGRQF

[3] = biological target: the molecule itself
[4] = biological target: T2, FLAG-CID (N-terminally FLAG-tagged CID, wild type) (Drosophila), Q9V6Q2; conditions: remark: other sources report otherwise
T2 chain: T1 chain

B1: endogenous CID, Q9V6Q2 1-225 (natural protein)
chain: T1 chain
stoichiometry N [2]: 2

B2: FLAG-CID^D211A (natural protein, Drosophila, UniProt Q9V6Q2 1-225, looked up)
chain: T1 chain with D211A
ratio dimer:monomer after crosslinking [3]: < 3

Second part, the molecule after the results:

stoichiometry N [1]: 2
Molecule: H3 (from UniProt P02299 1-136) (natural protein)

ratio dimer:monomer after crosslinking [4]: > 55 | stoichiometry N [4]: 2
B3: FLAG-CID (N-terminally FLAG-tagged CID, wild type), Q9V6Q2 1-225 (natural protein)
chain: T1 chain
